For 17 molecules, Kd and EC50 results are on record in patent US11008403 (dated 2021).

In experiment [1] the target is T1, cyno TfR ECD (cynomolgus).
T1 chain: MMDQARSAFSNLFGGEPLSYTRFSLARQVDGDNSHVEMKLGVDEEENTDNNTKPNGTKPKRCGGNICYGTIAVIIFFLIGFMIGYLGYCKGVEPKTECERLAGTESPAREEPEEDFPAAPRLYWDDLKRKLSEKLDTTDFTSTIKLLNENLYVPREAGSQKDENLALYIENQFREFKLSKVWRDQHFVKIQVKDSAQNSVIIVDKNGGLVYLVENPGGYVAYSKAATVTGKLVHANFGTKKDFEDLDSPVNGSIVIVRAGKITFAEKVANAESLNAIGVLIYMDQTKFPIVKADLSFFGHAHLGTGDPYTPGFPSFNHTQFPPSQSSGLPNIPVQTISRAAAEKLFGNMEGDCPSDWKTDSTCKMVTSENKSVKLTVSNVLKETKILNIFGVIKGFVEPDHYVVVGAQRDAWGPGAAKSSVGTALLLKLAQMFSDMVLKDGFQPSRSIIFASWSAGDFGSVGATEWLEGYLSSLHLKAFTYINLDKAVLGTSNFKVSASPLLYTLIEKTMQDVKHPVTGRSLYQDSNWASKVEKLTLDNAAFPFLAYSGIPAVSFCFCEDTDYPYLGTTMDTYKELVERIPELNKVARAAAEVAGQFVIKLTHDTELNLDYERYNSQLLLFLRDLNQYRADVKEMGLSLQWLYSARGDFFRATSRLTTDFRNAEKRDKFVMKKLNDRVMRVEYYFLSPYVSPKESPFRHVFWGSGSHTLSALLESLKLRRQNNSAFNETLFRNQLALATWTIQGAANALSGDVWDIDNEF
Kind of experiment: SPR. A general note: SPR reads the build-up and loss of mass on a sensor chip optically.

The target of experiment [2] is human TfR ECD (human). Kind of experiment: SPR.
Sequence of human TfR ECD (human) (chain, as listed by the source): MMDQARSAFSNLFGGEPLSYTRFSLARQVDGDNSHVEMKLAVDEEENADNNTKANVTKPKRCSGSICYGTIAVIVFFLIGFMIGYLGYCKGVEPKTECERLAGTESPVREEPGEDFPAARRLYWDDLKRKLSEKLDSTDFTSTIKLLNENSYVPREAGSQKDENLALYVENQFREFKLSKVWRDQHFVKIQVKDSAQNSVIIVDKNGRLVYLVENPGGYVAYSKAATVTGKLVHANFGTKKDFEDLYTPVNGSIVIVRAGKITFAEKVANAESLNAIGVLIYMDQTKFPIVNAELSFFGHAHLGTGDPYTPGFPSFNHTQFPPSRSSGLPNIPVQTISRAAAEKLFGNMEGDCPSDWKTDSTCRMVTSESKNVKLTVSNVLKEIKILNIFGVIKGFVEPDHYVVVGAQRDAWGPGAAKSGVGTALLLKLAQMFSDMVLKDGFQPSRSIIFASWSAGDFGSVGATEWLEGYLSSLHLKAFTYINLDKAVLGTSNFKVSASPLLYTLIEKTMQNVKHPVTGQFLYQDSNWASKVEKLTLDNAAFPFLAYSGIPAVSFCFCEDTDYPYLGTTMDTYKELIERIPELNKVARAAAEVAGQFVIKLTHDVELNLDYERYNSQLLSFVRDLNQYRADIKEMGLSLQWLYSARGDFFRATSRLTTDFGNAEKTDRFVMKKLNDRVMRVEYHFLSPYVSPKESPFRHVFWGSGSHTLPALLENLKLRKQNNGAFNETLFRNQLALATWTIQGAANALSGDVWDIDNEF
Experiment [3] addresses T1, cyno TfR ECD. Kind of experiment: ELISA. For orientation: An ELISA detects its analyte on a solid surface through an enzyme-linked reagent.
Experiment [4] addresses human TfR ECD (human). Kind of experiment: ELISA.

B1: Hu16F6.v4 Fab (antibody, V domains shown)
VH: EVQLVESGPGLVKPSETLSLTCTVSGNSITSEYAWNWIRQPPGKGLEWIGYISYSGTTSYNPSLKSRVTISRDTSKNQLSLKLSSVTAADTAVYYCARYGYGNPATRYFDVWGQGTLVTVSS
VL: DIQMTQSPSSLSASVGDRVTITCRASKSISKYLAWYQQKPGKTNKLLLYSGSTLQSGVPSRFSGSGSGTDYTLTISSLQPEDFATYYCQQHNEYPWTFGQGTKVEIK
B1: the Kd – broadly, the constant that tells how readily two partners part at equilibrium – with cyno TfR ECD [1] was 24.7 nM; with human TfR ECD [2] it was 1.29 nM.

B2: hu15G11.v5 LC Y30A (antibody, V domains shown)
VH: EVQLVQSGAEVKKPGASVKVSCKASGYTFTSYWMHWVRQAPGQRLEWIGEINPTNGRTNYIEKFKSRATLTVDKSASTAYMELSSLRSEDTAVYYCARGTRAYHYWGQGTMVTVSS
VL: DIQMTQSPSSLSASVGDRVTITCRASDNLASNLAWYQQKPGKSPKLLVYDATNLADGVPSRFSGSGSGTDYTLTISSLQPEDFATYYCQHFWGTPLTFGQGTKVEIK
Regarding B2, the values for the concentration for a half-maximal effect (EC50) with cyno TfR ECD [3] and in the experiment with human TfR ECD [4] were 1 ng/mL and 0.3 ng/mL, respectively.

B3: hu15G11.v5 LC R24A (antibody, V domains shown)
VH: EVQLVQSGAEVKKPGASVKVSCKASGYTFTSYWMHWVRQAPGQRLEWIGEINPTNGRTNYIEKFKSRATLTVDKSASTAYMELSSLRSEDTAVYYCARGTRAYHYWGQGTMVTVSS
VL: DIQMTQSPSSLSASVGDRVTITCAASDNLYSNLAWYQQKPGKSPKLLVYDATNLADGVPSRFSGSGSGTDYTLTISSLQPEDFATYYCQHFWGTPLTFGQGTKVEIK
In the case of B3, the EC50 (usually the concentration needed to bring the measured effect to its halfway point) is 0.4 ng/mL with cyno TfR ECD [3] and 0.1 ng/mL with human TfR ECD [4].

B4: hu15G11.v5 LC S26A (antibody, V domains shown)
VH: EVQLVQSGAEVKKPGASVKVSCKASGYTFTSYWMHWVRQAPGQRLEWIGEINPTNGRTNYIEKFKSRATLTVDKSASTAYMELSSLRSEDTAVYYCARGTRAYHYWGQGTMVTVSS
VL: DIQMTQSPSSLSASVGDRVTITCRAADNLYSNLAWYQQKPGKSPKLLVYDATNLADGVPSRFSGSGSGTDYTLTISSLQPEDFATYYCQHFWGTPLTFGQGTKVEIK
In the case of B4, the results for the EC50 with cyno TfR ECD [3] and with human TfR ECD [4] were 0.6 ng/mL and 0.2 ng/mL, respectively.

B5: hu15G11.v5 HC G49A (antibody, V domains shown)
VH: EVQLVQSGAEVKKPGASVKVSCKASGYTFTSYWMHWVRQAPGQRLEWIAEINPTNGRTNYIEKFKSRATLTVDKSASTAYMELSSLRSEDTAVYYCARGTRAYHYWGQGTMVTVSS
VL: DIQMTQSPSSLSASVGDRVTITCRASDNLYSNLAWYQQKPGKSPKLLVYDATNLADGVPSRFSGSGSGTDYTLTISSLQPEDFATYYCQHFWGTPLTFGQGTKVEIK
Turning to B5, the EC50 was found to be 1.1 ng/mL in the experiment with cyno TfR ECD [3] and 0.3 ng/mL with human TfR ECD [4].

B6: hu15G11.v5 LC N53A (antibody, V domains shown)
VH: EVQLVQSGAEVKKPGASVKVSCKASGYTFTSYWMHWVRQAPGQRLEWIGEINPTNGRTNYIEKFKSRATLTVDKSASTAYMELSSLRSEDTAVYYCARGTRAYHYWGQGTMVTVSS
VL: DIQMTQSPSSLSASVGDRVTITCRASDNLYSNLAWYQQKPGKSPKLLVYDATALADGVPSRFSGSGSGTDYTLTISSLQPEDFATYYCQHFWGTPLTFGQGTKVEIK
On to B6, for which the results for the EC50 with cyno TfR ECD [3] and with human TfR ECD [4] were 0.6 ng/mL and 0.3 ng/mL, respectively.

B7: hu15G11.v5 LC N28A (antibody, V domains shown)
VH: EVQLVQSGAEVKKPGASVKVSCKASGYTFTSYWMHWVRQAPGQRLEWIGEINPTNGRTNYIEKFKSRATLTVDKSASTAYMELSSLRSEDTAVYYCARGTRAYHYWGQGTMVTVSS
VL: DIQMTQSPSSLSASVGDRVTITCRASDALYSNLAWYQQKPGKSPKLLVYDATNLADGVPSRFSGSGSGTDYTLTISSLQPEDFATYYCQHFWGTPLTFGQGTKVEIK
On to B7, for which the EC50 with cyno TfR ECD [3] stood at 0.8 ng/mL; with human TfR ECD [4] it was 0.2 ng/mL.

B8: hu15G11.v5 HC G26A (antibody, V domains shown)
VH: EVQLVQSGAEVKKPGASVKVSCKASAYTFTSYWMHWVRQAPGQRLEWIGEINPTNGRTNYIEKFKSRATLTVDKSASTAYMELSSLRSEDTAVYYCARGTRAYHYWGQGTMVTVSS
VL: DIQMTQSPSSLSASVGDRVTITCRASDNLYSNLAWYQQKPGKSPKLLVYDATNLADGVPSRFSGSGSGTDYTLTISSLQPEDFATYYCQHFWGTPLTFGQGTKVEIK
Turning to B8, the EC50 in the experiment with cyno TfR ECD [3] was 6.1 ng/mL; with human TfR ECD [4], 1.1 ng/mL.

B9: hu15G11.v5 LC L54A (antibody, V domains shown)
VH: EVQLVQSGAEVKKPGASVKVSCKASGYTFTSYWMHWVRQAPGQRLEWIGEINPTNGRTNYIEKFKSRATLTVDKSASTAYMELSSLRSEDTAVYYCARGTRAYHYWGQGTMVTVSS
VL: DIQMTQSPSSLSASVGDRVTITCRASDNLYSNLAWYQQKPGKSPKLLVYDATNAADGVPSRFSGSGSGTDYTLTISSLQPEDFATYYCQHFWGTPLTFGQGTKVEIK
B9: the results for the EC50 with cyno TfR ECD [3] and with human TfR ECD [4] were 0.5 ng/mL and 0.4 ng/mL, respectively.

B10: hu15G11.v5 LC D50A (antibody, V domains shown)
VH: EVQLVQSGAEVKKPGASVKVSCKASGYTFTSYWMHWVRQAPGQRLEWIGEINPTNGRTNYIEKFKSRATLTVDKSASTAYMELSSLRSEDTAVYYCARGTRAYHYWGQGTMVTVSS
VL: DIQMTQSPSSLSASVGDRVTITCRASDNLYSNLAWYQQKPGKSPKLLVYAATNLADGVPSRFSGSGSGTDYTLTISSLQPEDFATYYCQHFWGTPLTFGQGTKVEIK
Consider B10, for which the figures for the EC50 with cyno TfR ECD [3] and with human TfR ECD [4] were 0.5 ng/mL and 0.2 ng/mL, respectively.

B11: hu15G11.v5 HC F29A (antibody, V domains shown)
VH: EVQLVQSGAEVKKPGASVKVSCKASGYTATSYWMHWVRQAPGQRLEWIGEINPTNGRTNYIEKFKSRATLTVDKSASTAYMELSSLRSEDTAVYYCARGTRAYHYWGQGTMVTVSS
VL: DIQMTQSPSSLSASVGDRVTITCRASDNLYSNLAWYQQKPGKSPKLLVYDATNLADGVPSRFSGSGSGTDYTLTISSLQPEDFATYYCQHFWGTPLTFGQGTKVEIK
On to B11, for which the EC50 was 12.5 ng/mL with cyno TfR ECD [3] and 1.5 ng/mL with human TfR ECD [4].

B12: hu15G11.v5 HC T28A (antibody, V domains shown)
VH: EVQLVQSGAEVKKPGASVKVSCKASGYAFTSYWMHWVRQAPGQRLEWIGEINPTNGRTNYIEKFKSRATLTVDKSASTAYMELSSLRSEDTAVYYCARGTRAYHYWGQGTMVTVSS
VL: DIQMTQSPSSLSASVGDRVTITCRASDNLYSNLAWYQQKPGKSPKLLVYDATNLADGVPSRFSGSGSGTDYTLTISSLQPEDFATYYCQHFWGTPLTFGQGTKVEIK
Regarding B12, the EC50 with cyno TfR ECD [3] turned out to be 0.8 ng/mL; with human TfR ECD [4] it was 0.4 ng/mL.

B13: hu15G11.v5 IgG (antibody, V domains shown)
VH: EVQLVQSGAEVKKPGASVKVSCKASGYTFTSYWMHWVRQAPGQRLEWIGEINPTNGRTNYIEKFKSRATLTVDKSASTAYMELSSLRSEDTAVYYCARGTRAYHYWGQGTMVTVSS
VL: DIQMTQSPSSLSASVGDRVTITCRASDNLYSNLAWYQQKPGKSPKLLVYDATNLADGVPSRFSGSGSGTDYTLTISSLQPEDFATYYCQHFWGTPLTFGQGTKVEIK
For B13, the EC50 with cyno TfR ECD [3] is 1.8 ng/mL; with human TfR ECD [4] it was 0.8 ng/mL.

B14: hu15G11.v5 HC E50A (antibody, V domains shown)
VH: EVQLVQSGAEVKKPGASVKVSCKASGYTFTSYWMHWVRQAPGQRLEWIGAINPTNGRTNYIEKFKSRATLTVDKSASTAYMELSSLRSEDTAVYYCARGTRAYHYWGQGTMVTVSS
VL: DIQMTQSPSSLSASVGDRVTITCRASDNLYSNLAWYQQKPGKSPKLLVYDATNLADGVPSRFSGSGSGTDYTLTISSLQPEDFATYYCQHFWGTPLTFGQGTKVEIK
B14: the values for the EC50 in the experiment with cyno TfR ECD [3] and with human TfR ECD [4] were 410 ng/mL and 20.6 ng/mL, respectively.

B15: hu15G11.v5 HC I51A (antibody, V domains shown)
VH: EVQLVQSGAEVKKPGASVKVSCKASGYTFTSYWMHWVRQAPGQRLEWIGEANPTNGRTNYIEKFKSRATLTVDKSASTAYMELSSLRSEDTAVYYCARGTRAYHYWGQGTMVTVSS
VL: DIQMTQSPSSLSASVGDRVTITCRASDNLYSNLAWYQQKPGKSPKLLVYDATNLADGVPSRFSGSGSGTDYTLTISSLQPEDFATYYCQHFWGTPLTFGQGTKVEIK
Regarding B15, the values for the EC50 with cyno TfR ECD [3] and in the experiment with human TfR ECD [4] were 0.6 ng/mL and 0.2 ng/mL, respectively.

B16: hu15G11.v5 LC D27A (antibody, V domains shown)
VH: EVQLVQSGAEVKKPGASVKVSCKASGYTFTSYWMHWVRQAPGQRLEWIGEINPTNGRTNYIEKFKSRATLTVDKSASTAYMELSSLRSEDTAVYYCARGTRAYHYWGQGTMVTVSS
VL: DIQMTQSPSSLSASVGDRVTITCRASANLYSNLAWYQQKPGKSPKLLVYDATNLADGVPSRFSGSGSGTDYTLTISSLQPEDFATYYCQHFWGTPLTFGQGTKVEIK
For B16, the EC50 in the experiment with cyno TfR ECD [3] was found to be 0.8 ng/mL; with human TfR ECD [4], 0.2 ng/mL.

B17: Mu16F6 Fab (antibody, V domains shown)
VH: DVQLQESGPGLVKPSQSLSLTCTVTGNSITSEYAWNWIRQFPGNKLEWMGYISYSGTTSYNPSLKSRISITRDTSKNQLFLQLNSVTTEDTATYFCARYGYGNPATRYFDVWGAGTTVTVSS
VL: DVQITQSPSYLTASPGETITINCRASKSISKYLAWYQEKPGKTNKLLIYSGSTLQSGIPSRFSGSGSGTDFTLTISNLEPEDFAMYYCQQHNEYPWTFGGGTKLEIK
As to B17, the Kd stood at 26.8 nM in the experiment with cyno TfR ECD [1] and 3.13 nM in the experiment with human TfR ECD [2].
